Laboratory results taken from the DeepSol protein solubility set.

Experiment: soluble on expression in E. coli; label from the status in PepcDB or PDB records
With “MAHHHHHHMVVVKGTEYYDGRTKNYVDYPITDVLQMVGRAGRPQFDTEGVAQVLCHEPKKGFYRKFLYDPFPVESTLHKQLHVHINAEIVAGTITTRQDAVDYLTWTYLFRRLVKNPSYYGVEDRSPKAVTIFISTLVANVLDELEACGCIASPGDDEEDDVSRKVTGMSAAGGTDDEKDPDALTCTVLGRLCSYYYLSHKTVRYFDAHIGADSSHVDVLKALCEAEEFNELPVRHNEDKLNLVLSQLLPFPINPNNAESPHVKAFLLFQAHFERASLPISDYYTDLKSALDNAVRVVQAMVDITSNNGHLYAALRCMSLLQCMVQGIWWHSSTLLQIPHVTAGMLPVIASRCGNLEHAAQVANSSITALQTLKAVLREDCGLSETQLREAMAAIQGFPLIDVRLCLSRTPDRTSNSGDAEHSDDGSKTAADVTYTLTVHLTRLSVHNKHVVAPHFTKPKDEQYWLVVGNEKTGELIALKRVNRLVNCVELTLSFEWDDEWAEFAEGGAVALSLYVVCDSYVGLDQQYNFSVPVPVDM” the “soluble on expression in E. coli” value was “soluble”.
For “IGKVGYRLGFNLSDYKSKITKYDDNATTKLLSSFYPGQVMGEIWGYIADGYYSVDDFEDTSSWKLKEGITSINGYNVRPGDVKFKNLRDDESSTNVITSGDNTFDNPGDRKVIGNTTPRYQYGINLGANYAGFDLNVILQGTGKRDYWISNVLTFPMNGDNFIPLFDGLSDYWMPKDPDNGDWTAVNPNAKYPRLYGNRGNSGSNLRQSDKYLSDASYLRIKNITLSYNLPKKWLSQIFLSQMKAFVSVENVATFTSLPSGIDPERIEWNYPAFRTVSFGINITL”, the “soluble on expression in E. coli” value was “not soluble”.
For “MIKDILNTIASLVEENVVVFASERGKQLLQKVKADLVSFKPINFYALDAGKQITDALKLIESYCIEMNRIFDELNHQSSVSLANEKLTHKIKNILTNLKNKQNKITQLREKIPEGMLDIKRALYIVENSFLSESEPEEKELRSKFKRIKKFMSNSNKEYLDLIKKGGLLNTVLLDTTTLYWNQLHEYSTLLNQCRITLQKSHHLTKEGQLALRCFNSAIQKMPPKKHIINALKILNKPNSKTEAIEKIGFVSPHGREACMQLTCWGKKFFYIPRSEEMYHFDYDPKEDLNETGGNCFGESMMFIHFLSKGAIRWLCPEAGLINFQLDQTRNLKFKKATLGEGETLVSDNSPHDSLEWEDMRPVLLDNPYFKPGSLCGVIFSMNDYTKAKREFTAGHMIVVAKLDTNLNPYKYIIYEKDFGAFGLTDDESLEYLISEQILPLYRGMNYSKIKLVKYGEASTETYDLLNKIKPQTGIPQKESTASDSINTYFDNAFFKLSKETNKENVIDQVNQTDVFGFCRN”, the “soluble on expression in E. coli” value was “not soluble”.
For “MQAVGLITEYNPLHNGHRYHLRQAQQLTNADCVIVVMSGDWLQRGEPAILDKWTRAKLALENGADLVIELPVFFATQPAHLFARGGIELLSALDCTSVVFGAEHPELDFQRLATAIAARQGSFTHYNATFATQFNAALQAATGVTLTAANDMLSFCYYAANQTLAHPMQLLPIKRRQADHATTTIAADSRYASGTAVRQAALAQDWAALKPVVPADTFTALTTQRLQ”, the “soluble on expression in E. coli” value was “not soluble”.
In the case of “MNRLHRWNWLVLSAALVTLPFTTPTQAAGVSVSQGSSASLSQAELEQMLAPIALYPDSLLSHILIASTYPLELVQAQRWLEDHPKLSVEQVMSRTEDKGWDPSVKALMAFPNVLQKMSEDLDWTQRLGEAFLANEGQVMDGIQSLRQQADKANSLANMDNMAVTRANNQIIIEPVRREVVYVPYYDPRVVYGTWRWGVAYPPVYWQFGGYVGNPYRPSHSYFYWSPGIHISFNYFFSSFHWHRHKVVVIDHHHSHHYRPRERYSVSHGAQPWKHKPEHRRGVAYHHPVVKERYYSDSKYRGRDSHSSGSGQHFTSQYAKSREHQDTRDNRDNQRDDKRHDKDRGNQYSRERTPNLQHTQAELKERRATPMDSSQTHRENYQREHRQKERNDNGRHDNQVRQNQAKTMREQTNDTWQRQYQQREYQSSDQQPRHVETRAQPQRHEARPEVRRPEPQRIEQPRQAQPRQREEVRTRPSESRQHTQCGA”, the “soluble on expression in E. coli” value is reported as “not soluble”.
With “EAGAMDERTFGKSIEVYTRQICEELLTTAAGNTDAHYKTYRCPLCGNDSVRVFPKIVKCVTDGCGFKVFRELCGTLLSKEYIHALMTDGCTPLLCRLTGKSGKTFNARLKLDKDGGTSFVFDSKPRKPQT” the “soluble on expression in E. coli” value was “not soluble”.
For “MHFGKHNVDFMLPSLRKEWEDPEKIVSQIPIQPNFDIVDLGCGPGFFTLPLSETTDGKVYAIDASQEMIDALKQRIDGRSNIVTIKAPAEKIPLPDLSADLVFIANAYHDFDDRDEVLSEIYRILRAGRFLVDIDWKKEETTRGPPIDIRIDKKEAMLEIASHNFDIESEIEAGPHHYGLIFKKILEHHHHHH”, the “soluble on expression in E. coli” value was “soluble”.
